T1: LNX2_2, Q8N448
T1 sequence (Q8N448 334-432, limits assumed, looked up): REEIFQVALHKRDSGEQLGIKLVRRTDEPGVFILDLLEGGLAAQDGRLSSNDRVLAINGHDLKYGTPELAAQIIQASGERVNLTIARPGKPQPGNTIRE

T2: PCLO, Q9Y6V0
T2 sequence (Q9Y6V0 4491-4600, limits assumed, looked up): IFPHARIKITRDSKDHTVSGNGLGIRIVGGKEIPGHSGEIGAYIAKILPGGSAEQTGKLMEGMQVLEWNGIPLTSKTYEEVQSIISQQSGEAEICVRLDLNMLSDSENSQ

T3: SHANK1, Q9Y566
T3 sequence (Q9Y566 658-767, limits assumed, looked up): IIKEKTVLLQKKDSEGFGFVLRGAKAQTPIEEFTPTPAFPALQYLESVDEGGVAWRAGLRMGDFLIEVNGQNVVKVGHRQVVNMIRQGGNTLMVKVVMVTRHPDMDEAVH

T4: NHERF3_3, Q5T2W1
T4 sequence (Q5T2W1 238-333, limits assumed, looked up): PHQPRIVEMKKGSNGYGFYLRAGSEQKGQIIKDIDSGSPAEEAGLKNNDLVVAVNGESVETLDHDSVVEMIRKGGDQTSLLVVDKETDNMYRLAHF

T5: NHERF3_1, Q5T2W1
T5 sequence (Q5T2W1 4-100, limits assumed, looked up): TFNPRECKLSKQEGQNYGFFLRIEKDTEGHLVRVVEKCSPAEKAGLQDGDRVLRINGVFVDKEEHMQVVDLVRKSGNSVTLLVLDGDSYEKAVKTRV

T6: DLG3_3, Q92796
T6 sequence (Q92796 374-475, limits assumed, looked up): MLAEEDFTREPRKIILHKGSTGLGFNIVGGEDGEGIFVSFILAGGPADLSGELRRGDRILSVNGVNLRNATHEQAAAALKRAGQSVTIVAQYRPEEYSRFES

T7: TJP3_3, O95049
T7 sequence (O95049 375-456, limits assumed, looked up): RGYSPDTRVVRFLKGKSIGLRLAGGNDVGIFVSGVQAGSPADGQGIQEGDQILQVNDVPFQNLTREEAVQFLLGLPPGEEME

T8: MPP2, Q14168
T8 sequence (Q14168 180-250, limits assumed, looked up): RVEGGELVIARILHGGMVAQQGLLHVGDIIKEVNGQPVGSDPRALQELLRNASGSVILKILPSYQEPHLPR

T9: DFNB31_2, Q9P202
T9 sequence (Q9P202 274-371, limits assumed, looked up): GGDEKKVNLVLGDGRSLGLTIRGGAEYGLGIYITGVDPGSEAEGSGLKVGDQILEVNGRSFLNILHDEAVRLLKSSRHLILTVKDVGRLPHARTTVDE

T10: GRIP1_5, Q9Y3R0
T10 sequence (Q9Y3R0 568-668, limits assumed, looked up): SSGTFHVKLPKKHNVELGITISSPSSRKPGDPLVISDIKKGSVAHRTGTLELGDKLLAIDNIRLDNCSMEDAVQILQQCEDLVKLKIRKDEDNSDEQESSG

T11: TIAM2, Q8IVF5
T11 sequence (Q8IVF5 885-986, limits assumed, looked up): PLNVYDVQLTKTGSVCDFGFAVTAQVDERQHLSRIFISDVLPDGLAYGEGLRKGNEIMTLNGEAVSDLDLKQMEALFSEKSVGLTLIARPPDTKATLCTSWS


Legend:
Test in all cases: holdup assay
Design in all cases: key: below the threshold = too weak to quantify, mostly under pKd 3.1 to 4
Details in all cases: plain residues with an end cap or a label only (N-terminal biotin on a linker: ado-ado)
DLG4_3, P78352 = target: DLG4_3, P78352
Chain of DLG4_3, P78352 (P78352 306-403): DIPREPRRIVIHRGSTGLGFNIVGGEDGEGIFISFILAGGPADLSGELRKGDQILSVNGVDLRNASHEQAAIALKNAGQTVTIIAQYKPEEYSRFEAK

LNX2_2, Q8N448 = target: T1, LNX2_2, Q8N448
PCLO, Q9Y6V0 = target: T2, PCLO, Q9Y6V0
SHANK1, Q9Y566 = target: T3, SHANK1, Q9Y566
MAGI2_6, Q86UL8 = target: MAGI2_6, Q86UL8
Chain of MAGI2_6, Q86UL8 (Q86UL8 1141-1229): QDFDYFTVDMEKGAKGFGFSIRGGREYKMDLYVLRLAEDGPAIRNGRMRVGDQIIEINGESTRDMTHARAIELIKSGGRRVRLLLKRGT

DLG1_3, Q12959 = target: DLG1_3, Q12959
Chain of DLG1_3, Q12959 (Q12959 457-571): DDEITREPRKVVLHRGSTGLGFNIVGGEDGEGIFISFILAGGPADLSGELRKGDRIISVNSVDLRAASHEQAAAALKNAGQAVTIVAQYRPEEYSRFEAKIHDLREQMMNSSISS

NHERF3_3, Q5T2W1 = target: T4, NHERF3_3, Q5T2W1
PICK1, Q9NRD5 = target: PICK1, Q9NRD5
Chain of PICK1, Q9NRD5 (Q9NRD5 17-115): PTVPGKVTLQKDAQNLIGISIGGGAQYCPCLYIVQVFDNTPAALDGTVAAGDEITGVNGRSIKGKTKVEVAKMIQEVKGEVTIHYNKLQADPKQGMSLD

Inadl_6, Q8NI35 = target: Inadl_6, Q8NI35
Chain of Inadl_6, Q8NI35 (Q8NI35 1058-1167): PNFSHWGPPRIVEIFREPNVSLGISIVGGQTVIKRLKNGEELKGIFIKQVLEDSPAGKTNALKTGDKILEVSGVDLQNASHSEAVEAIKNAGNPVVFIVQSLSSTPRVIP

PTPN3, P26045 = target: PTPN3, P26045
Chain of PTPN3, P26045 (P26045 505-587): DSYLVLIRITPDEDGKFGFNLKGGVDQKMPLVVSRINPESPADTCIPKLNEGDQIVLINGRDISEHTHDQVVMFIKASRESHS

FRMPD2_2, Q68DX3 = target: FRMPD2_2, Q68DX3
Chain of FRMPD2_2, Q68DX3 (Q68DX3 944-1038): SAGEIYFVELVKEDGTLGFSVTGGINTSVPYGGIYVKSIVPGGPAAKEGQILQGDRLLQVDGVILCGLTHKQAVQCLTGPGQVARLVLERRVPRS

NHERF3_1, Q5T2W1 = target: T5, NHERF3_1, Q5T2W1
NHERF4_1, Q86UT5-2 = target: NHERF4_1, Q86UT5-2
Chain of NHERF4_1, Q86UT5-2 (Q86UT5 other isoform, or with tags, fused parts or gaps): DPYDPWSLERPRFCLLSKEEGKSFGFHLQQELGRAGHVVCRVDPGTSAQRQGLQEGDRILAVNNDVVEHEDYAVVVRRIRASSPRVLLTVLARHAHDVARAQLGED

GRID2IP_1, A4D2P6 = target: GRID2IP_1, A4D2P6
Chain of GRID2IP_1, A4D2P6 (A4D2P6 1-87): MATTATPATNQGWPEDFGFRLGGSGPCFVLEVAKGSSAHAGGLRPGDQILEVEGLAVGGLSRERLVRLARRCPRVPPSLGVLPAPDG

DLG3_3, Q92796 = target: T6, DLG3_3, Q92796
TJP1_3, Q07157 = target: TJP1_3, Q07157
Chain of TJP1_3, Q07157 (Q07157 416-512): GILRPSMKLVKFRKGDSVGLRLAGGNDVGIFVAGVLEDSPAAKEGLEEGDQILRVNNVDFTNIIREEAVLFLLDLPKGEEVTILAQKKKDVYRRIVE

Inadl_8, Q8NI35 = target: Inadl_8, Q8NI35
Chain of Inadl_8, Q8NI35 (Q8NI35 1425-1530): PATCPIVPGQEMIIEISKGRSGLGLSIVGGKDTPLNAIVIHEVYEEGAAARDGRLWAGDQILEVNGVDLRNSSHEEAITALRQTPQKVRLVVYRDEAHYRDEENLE

DLG4_1, P78352 = target: DLG4_1, P78352
Chain of DLG4_1, P78352 (P78352 62-152): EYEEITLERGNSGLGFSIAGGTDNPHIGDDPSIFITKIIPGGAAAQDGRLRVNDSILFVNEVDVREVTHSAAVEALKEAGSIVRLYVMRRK

TJP3_3, O95049 = target: T7, TJP3_3, O95049
MPP2, Q14168 = target: T8, MPP2, Q14168
IL16_1, Q14005 = target: IL16_1, Q14005
Chain of IL16_1, Q14005 (Q14005 210-306): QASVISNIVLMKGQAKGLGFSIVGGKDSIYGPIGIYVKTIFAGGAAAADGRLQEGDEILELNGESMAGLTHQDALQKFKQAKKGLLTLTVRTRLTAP

DFNB31_2, Q9P202 = target: T9, DFNB31_2, Q9P202
MAGI2_2, Q86UL8 = target: MAGI2_2, Q86UL8
Chain of MAGI2_2, Q86UL8 (Q86UL8 410-522): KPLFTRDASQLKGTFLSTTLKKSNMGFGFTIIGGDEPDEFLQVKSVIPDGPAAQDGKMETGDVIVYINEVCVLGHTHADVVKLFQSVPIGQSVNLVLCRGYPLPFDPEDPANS

GORASP1, Q9BQQ3 = target: GORASP1, Q9BQQ3
Chain of GORASP1, Q9BQQ3 (Q9BQQ3 1-208): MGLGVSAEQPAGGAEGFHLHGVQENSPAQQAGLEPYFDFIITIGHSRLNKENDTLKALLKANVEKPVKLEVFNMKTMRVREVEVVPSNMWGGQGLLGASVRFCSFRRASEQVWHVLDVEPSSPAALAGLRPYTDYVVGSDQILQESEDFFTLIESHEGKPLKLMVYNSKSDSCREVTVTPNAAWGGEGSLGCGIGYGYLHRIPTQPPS

GRIP1_5, Q9Y3R0 = target: T10, GRIP1_5, Q9Y3R0
NOS1, P29475 = target: NOS1, P29475
Chain of NOS1, P29475 (P29475 9-101): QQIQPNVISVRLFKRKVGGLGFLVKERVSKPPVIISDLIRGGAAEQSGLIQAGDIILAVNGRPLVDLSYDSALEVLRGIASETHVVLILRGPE

TIAM2, Q8IVF5 = target: T11, TIAM2, Q8IVF5

Binder	pKd (DLG4_3, P78352)	pKd (LNX2_2, Q8N448)	pKd (PCLO, Q9Y6V0)	pKd (SHANK1, Q9Y566)	pKd (MAGI2_6, Q86UL8)	pKd (DLG1_3, Q12959)	pKd (NHERF3_3, Q5T2W1)	pKd (PICK1, Q9NRD5)	pKd (Inadl_6, Q8NI35)	pKd (PTPN3, P26045)	pKd (FRMPD2_2, Q68DX3)	pKd (NHERF3_1, Q5T2W1)	pKd (NHERF4_1, Q86UT5-2)	pKd (GRID2IP_1, A4D2P6)	pKd (DLG3_3, Q92796)	pKd (TJP1_3, Q07157)	pKd (Inadl_8, Q8NI35)	pKd (DLG4_1, P78352)	pKd (TJP3_3, O95049)	pKd (MPP2, Q14168)	also measured
HLRARKSEWV [GJD4, Q96KN9]	below the threshold	5	below the threshold	below the threshold	3.85	below the threshold	below the threshold	below the threshold	below the threshold	3.99	below the threshold	4.08	4.06	below the threshold	below the threshold	4.67	3.59	below the threshold	4.63	below the threshold	pKd (IL16_1, Q14005): below the threshold; pKd (DFNB31_2, Q9P202): below the threshold; pKd (MAGI2_2, Q86UL8): below the threshold; pKd (GORASP1, Q9BQQ3): 5; pKd (GRIP1_5, Q9Y3R0): below the threshold; pKd (NOS1, P29475): 4.89; pKd (TIAM2, Q8IVF5): 4.1
AKPSRISTVV [IQSEC2, Q5JU85]	4.18	5.09	below the threshold	3.96	below the threshold	below the threshold	below the threshold	4.14	below the threshold	4.21	below the threshold	below the threshold	3.48	below the threshold	4.18	below the threshold	3.89	4.82	below the threshold	below the threshold	pKd (IL16_1, Q14005): below the threshold; pKd (DFNB31_2, Q9P202): below the threshold; pKd (MAGI2_2, Q86UL8): 5.23; pKd (GORASP1, Q9BQQ3): 4.11; pKd (GRIP1_5, Q9Y3R0): below the threshold; pKd (NOS1, P29475): 3.65; pKd (TIAM2, Q8IVF5): 3.91
PEYLGLDVPV [ERBB2, P04626]	below the threshold	3.96	below the threshold	below the threshold	below the threshold	below the threshold	below the threshold	4.25	below the threshold	below the threshold	below the threshold	below the threshold	below the threshold	below the threshold	below the threshold	below the threshold	below the threshold	below the threshold	below the threshold	below the threshold	pKd (IL16_1, Q14005): 3.65; pKd (DFNB31_2, Q9P202): below the threshold; pKd (MAGI2_2, Q86UL8): below the threshold; pKd (GORASP1, Q9BQQ3): below the threshold; pKd (GRIP1_5, Q9Y3R0): below the threshold; pKd (NOS1, P29475): 3.9; pKd (TIAM2, Q8IVF5): below the threshold

Second part, led by results:

pKd (DLG4_3, P78352)	pKd (LNX2_2, Q8N448)	pKd (PCLO, Q9Y6V0)	pKd (SHANK1, Q9Y566)	pKd (MAGI2_6, Q86UL8)	pKd (DLG1_3, Q12959)	pKd (NHERF3_3, Q5T2W1)	pKd (PICK1, Q9NRD5)	pKd (Inadl_6, Q8NI35)	pKd (PTPN3, P26045)	pKd (FRMPD2_2, Q68DX3)	pKd (NHERF3_1, Q5T2W1)	pKd (NHERF4_1, Q86UT5-2)	pKd (GRID2IP_1, A4D2P6)	pKd (DLG3_3, Q92796)	pKd (TJP1_3, Q07157)	pKd (Inadl_8, Q8NI35)	pKd (DLG4_1, P78352)	pKd (TJP3_3, O95049)	pKd (MPP2, Q14168)	Binder	also measured
below the threshold	below the threshold	below the threshold	4.99	3.98	below the threshold	3.59	4.11	3.78	4.88	below the threshold	5.69	3.97	below the threshold	below the threshold	below the threshold	below the threshold	below the threshold	below the threshold	below the threshold	TSQESEDTYL [TBC1D10A, Q9BXI6]	pKd (IL16_1, Q14005): below the threshold; pKd (DFNB31_2, Q9P202): below the threshold; pKd (MAGI2_2, Q86UL8): below the threshold; pKd (GORASP1, Q9BQQ3): below the threshold; pKd (GRIP1_5, Q9Y3R0): below the threshold; pKd (NOS1, P29475): below the threshold; pKd (TIAM2, Q8IVF5): below the threshold
below the threshold	below the threshold	below the threshold	below the threshold	5.21	below the threshold	below the threshold	below the threshold	below the threshold	4.6	3.82	below the threshold	below the threshold	below the threshold	below the threshold	below the threshold	4.94	3.69	below the threshold	below the threshold	DDENIRTSDV [PLEKHA2, Q9HB19]	pKd (IL16_1, Q14005): 3.83; pKd (DFNB31_2, Q9P202): below the threshold; pKd (MAGI2_2, Q86UL8): below the threshold; pKd (GORASP1, Q9BQQ3): below the threshold; pKd (GRIP1_5, Q9Y3R0): below the threshold; pKd (NOS1, P29475): below the threshold; pKd (TIAM2, Q8IVF5): below the threshold
